# Assay results from patent publication US6280955.
# Target: IL-1RI (cell surface IL-1 receptor) (Homo sapiens (Human)) (UniProt P14778)
substance,measurement,value
"epitope-tagged IL-1RAcP (amino-terminal FLAG fusion, full length, transiently expressed from pFlag-CMV-1) (receptor)","NF-κB-dependent luciferase reporter gene in 293 cells, ligand-independent",20 fold
